Experimental findings from patent publication US20170218064A1 (Stanford University, published 2017) are described below.

The target of the experiment is T1, human neuromedin U (NMU), bioactive processed 25 amino acid form (human, C-terminal amidation (-NH2)).
T1 construct: In the serum ELISAs the target is endogenous circulating human NMU; also called human NMU; NMU-25
T1 peptide: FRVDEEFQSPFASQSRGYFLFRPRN
The experiment can be described thus: not described.

B1: anti-NMU monoclonal antibody 2A16 (antibody, V domains shown)
VH: QIQLVQSGPELKKPGETVKISCKASGYTFTKHGMNWMKQAPGKGLKWMGWINTNTGEPTYSEEFKGRFAFSLETSASTAYLQINNLKNEDTATYFCARTGRYGVDYWGKGTSVTVSS
VL: DIQMTQSPSSLSASLGERVSLTCRASQDIGSNLNWIQQEPDGTIKRLIYATSTLDSGVPKRFSGSRSGSDYFLTISSLESEDFVDYYCLQFDSSPLTFGAGTKLELK
notes: Monoclonal antibody from a mouse hybridoma
As for B1, the binding result is reported as “binds”.

B2: anti-NMU monoclonal antibody C578 (antibody, V domains shown)
VH: EVQLQQSGAELVRSGASVKLSCAASGFNIKDYYIHWVKQRPEQGLEWIGWIDPENGDNECAPKFQGKATMTADTSSNTAYLQLTSLTSEDTAVYYCNAGKGDYWGQGTTLTVSS
VL: NIVMTQSPSSLAMSIGQKVTMSCRSSQSLLNSSNQKNYLAWYQQKPGQSPKLLVYFASTRESGVPARFIGSGSGTDFTLTISSVQAEDLADYFCQQHYSTPFTFGSGTKLEIK
notes: as for B1
For the molecule B2, the binding result is “binds”.
